Data as given in patent US9927440B2, “Protein engineering” (priority 2009, dated 2018).
Like-named read-outs stand apart in the source and are kept apart here.

Tests used:
[1] = biological target: T1, Staphylococcal nuclease (SN) (Staphylococcus aureus, UniProt P00644, L118C/Q162N); type: binding; conditions: 1 mM Ca2+; 35.3 °C
T1 construct: made in house; host or cells: cell-free TnT, E. coli BL21 Star (DE3) extract
Protocol: (§1) The rate of labeling of internal cysteine residues was measured by reacting 30-50 μL of ˜0.1 μM protein sample (i.e., ˜3-5 picomoles of protein) with excess IAM-biotin (1 mM unless otherwise stated) at constant temperature (25 mM MOPS, 100 mM KCl and pH 7.6). 5 μL aliquots were removed at fixed time intervals and quenched by addition of 2 μL 2M β-mercaptoethanol (Sigma; M6250). Following addition of 5 μL LDS-buffer (Invitrogen; NP0007) and heating for 2 min at 85° C., (un)labeled protein species were resolved by SDS-PAGE (Novex 4-12% Bis-Tris Gels; Invitrogen; NP0321). […] For the experiment shown in FIG. 8A, ecRBP variant L62C was modified with 1 mM IAM-biotin at 47.1° C., pH 7.6. […] Streptavidin was used to alter the electrophoretic mobility of the labeled protein (Streptavidin bands indicated by a, b, and c). […] Error bars represent the estimated uncertainty of the integrated band intensities (˜2%). For the experiment shown in FIG. 8B, SN variant L36C was labeled with IAM-biotin at 35.3° C., pH 7.6. […] At 29.3° C., 26.3° C. and 23.3° C., kint and klabel were manipulated by increasing the concentration of IAM-biotin from 1 mM to 3.16 mM.
(§2) The modulation of protein stability by binding of metals, ligands, activators, inhibitors, substrates, nucleic acid or other proteins can be used to measure binding affinities within a GUWO. For a protein with a single binding site, the free energy of ligand binding was described by
(§3) [formula] where P was the binding polynomial, [L] the total ligand concentration, and KD the apparent dissociation constant of the ligand. For proteins with multiple ligand-binding sites, P was expanded as described in Equations 21-36 below.
(§4) By thermodynamic linkage, any change in ΔGU caused predominantly by ligand binding (Scheme 1) is ΔGbind=ΔΔ^LGU=Δ^LGU−Δ^apoGU [20] where Δ^LGU and Δ^apoGU were the stability of the protein in the presence of absence of ligand respectively. Equation 20 was used to obtain apparent KD values from either the ligand dependence of ΔΔGU (by curve fitting), or from a single measurement of ΔΔGU.

[2] = biological target: T2, Staphylococcal nuclease (SN) (Staphylococcus aureus, UniProt P00644); type: binding; conditions: SN/L36C; 35.3 °C; from single ΔΔGU measurement; read-out: apparent KD (binary complex)
T2 construct: made in house; host or cells: cell-free TnT, E. coli BL21 Star (DE3) extract
Protocol: as §1, §2, §3, §4

SN = SN (Staphylococcus aureus, UniProt P00644); conditions: cited from earlier work
[3] = Intrinsic reaction rate of IAM-biotin with unprotected cysteine (GSH), iodide absorbance at 226 nm; type: physicochemical; conditions: pH 7.6; for pseudo-first order rate constant (kint): 80 μM IAM-biotin, 800 μM GSH
Protocol: FIGS. 10A-C show the determination of kint in model compounds and unfolded SN.
The iodoacetyl moiety of IAM-biotin (EZ-Link™ Iodoacetyl-PEG2-Biotin; Pierce; 21334) reacts primarily with free thiolate to form a stable thioether bond. Because thiolate was the predominant reactive species, the reaction rate was dependent on the pKa of cysteine (˜8.6) relative to solution pH (which was set to 7.6). The kint values reported here were only valid for pH 7.6. kint was determined for an unprotected cysteine by reacting IAM-biotin with L-glutathione (GSH) (Sigma; G4251) and monitoring the absorbance of the liberated iodide ion (ϵ226=12,600M^−1 cm^−1 at 226 nm) as function of time. Second-order rate constants for the reaction of IAM-biotin with GSH were measured under pseudo first-order conditions at 25° C., 35° C., 45° C. and 55° C. (80 μM IAM-biotin, 800 μM GSH, 25 mM MOPS, 100 mM KCl and pH 7.6) and analyzed in terms of the Arrhenius equation (see FIG. 10).

[4] = biological target: T3, E. coli ribose-binding protein (ecRBP) (Escherichia coli, UniProt P02925, A213C/T28W); test: biochemical; conditions: for ΔG / ΔΔG / kex: ecRBP.A188C, 54.6 °C; for kex: 1.00E−03 M IAM
T3 construct: made in house; host or cells: cell-free TnT, E. coli BL21 Star (DE3) extract
T3 sequence (P02925 other isoform, or with tags, fused parts or gaps T28W/A213C): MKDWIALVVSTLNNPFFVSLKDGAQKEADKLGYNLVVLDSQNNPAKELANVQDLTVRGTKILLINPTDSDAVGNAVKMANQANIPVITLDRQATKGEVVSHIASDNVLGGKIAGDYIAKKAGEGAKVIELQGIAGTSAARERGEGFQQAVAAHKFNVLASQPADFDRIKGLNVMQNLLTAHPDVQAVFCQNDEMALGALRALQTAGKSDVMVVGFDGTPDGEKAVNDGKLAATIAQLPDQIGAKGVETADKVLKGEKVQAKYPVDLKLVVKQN
Protocol: as §1, §2, §3, §4

[5] = biological target: T4, E. coli ribose-binding protein (ecRBP) (Escherichia coli, UniProt P02925, L86C/T28W); test: biochemical; conditions: for ΔG / ΔΔG / kex: ecRBP.L62C, 48.9 °C; for kex: 1.00E−03 M IAM
T4 construct: made in house; host or cells: cell-free TnT, E. coli BL21 Star (DE3) extract
T4 sequence (P02925 other isoform, or with tags, fused parts or gaps T28W/L86C): as the sequence (P02925 other isoform, or with tags, fused parts or gaps T28W/A213C) above, with L62C, C189A counted along it
Protocol: as §1, §2, §3, §4

[6] = Quantitative cysteine reactivity (QCR): protein stability, temperature dependence of ΔGU; type: physicochemical; conditions: for ΔHm: Gibbs-Helmholtz fit, ΔCp assigned a priori; for ΔG°U at 25° C.: ecRBP mutants, Gibbs-Helmholtz extrapolation; for apparent Tm below wild-type: versus literature wild-type Tm
Protocol: as §1
Following staining with GelCode™ Blue Stain reagent (Thermo Scientific; 24592), gel images were digitized and band intensities quantified by densitometry (ImageJ; Rasband (1997-2009), U.S. National Institutes of Health, Bethesda, Md.) and fit to a single exponential to derive klabel. When designing QCR experiments, consideration was given to the degradation of the iodoacetyl moiety of IAM-biotin, which was dependent on time, exposure to light, and temperature. […] At higher temperatures the degradation of IAM-biotin is taken into account, primarily by limiting the labeling reaction to less than ˜90 min.
[formula] applies only if the labeling conditions were fully in the EX2 limit, when kclose>>kint. As labeling reagent concentration increases, kint increases concomitantly and eventually kint will become equal to or greater than kclose. Under these conditions, the observed labeling rate was determined solely by kopen and klabel and was no longer a measure of stability. The reagent concentration and environmental conditions (i.e. pH and temperature) at which EX2 conditions no longer apply varies according to the (un)folding kinetics of the protein. A simple test of reaction mechanism was to change reagent concentration and remeasure the kinetics: EX2 conditions were satisfied if the change in the observed labeling rate was proportional to the change in reagent concentration (see FIG. 9).
The QCR experiment was designed to determine the Gibbs free energy of global protein unfolding by measuring the reactivity of wild-type or mutant cysteines buried in a hydrophobic core. […] These mutant proteins were produced in 200 μL batches by cell-free coupled transcription and translation in E. coli extract. […] This approach uses approximately 0.5 picomoles (˜10 nanograms) of protein per time point and can use a variety of thiol-reactive reagents that alter electrophoretic mobility or were highly fluorescent.
The QCR method exploits the conformational fluctuations of a protein to measure conformational free energy. Cysteines that were protected in the folded ensemble can be modified by thiol-reactive probe only by complete exposure to bulk solvent by transient unfolding reactions, as described by a two-step reaction scheme:
Unfolding free energies (ΔGU) can be determined under EX2 conditions (kclose>>kint) by measuring klabel, the rate constant for labeling a protected cysteine at a specified concentration of thiol probe [P]

[7] = second-order rate constants 25-55 °C

## [Ca+2] [Ca^2+]
[1]
  increase in stability (ΔΔGU) of SN/L36C: 0.6 ± 0.2 kcal/mol
[2]
  Kd: 600000 ± 200000 nM
SN; Ca2+ and pdTp synergistic, read-out: affinity for SN in the presence of the other ligand
  Kd: ~2000 nM
SN; Serpersu et al. 1986, read-out: affinity for SN, ligand by itself
  Kd: ~500000 nM

## O=C(CI)NCCOCCOCCNC(=O)CCCC[C@@H]1SC[C@@H]2NC(=O)N[C@@H]21 [IAM-biotin, EZ-Link™ Iodoacetyl-PEG2-Biotin]
[3]; 25 °C, 25 mM MOPS, 100 mM KCl
  pseudo-first order rate constant (kint): 0.00062 s⁻¹
[3]; 25 °C
  second order rate constant (k=kint/[GSH]): 0.78 M⁻¹ s⁻¹
[3]; 35 °C
  pseudo-first order rate constant (kint): 0.00016 s⁻¹
  second order rate constant (k=kint/[GSH]): 2.0 M⁻¹ s⁻¹
[3]; 45 °C
  pseudo-first order rate constant (kint): 0.0035 s⁻¹
  second order rate constant (k=kint/[GSH]): 4.4 M⁻¹ s⁻¹
[3]; 55 °C
  pseudo-first order rate constant (kint): 0.0077 s⁻¹
  second order rate constant (k=kint/[GSH]): 9.6 M⁻¹ s⁻¹
[3]; [7]
  Arrhenius pre-exponential factor (ln A), IAM-biotin + GSH: 27.1±0.5
  Arrhenius slope (−Ea/R), IAM-biotin + GSH: −8.2×10^3±0.1×10^3

## O=C[C@H](O)[C@H](O)[C@H](O)CO [ribose, reference compound]
[4]
  Kd: 1800 ± 100 nM
[5]
  Kd: 2800 ± 200 nM

B1: ecRBP.L62C: E. coli ribose-binding protein variant L62C (SEQ ID NO:12) (protein, listed as Escherichia coli)
chain: MKDTIALVVSTLNNPFFVSLKDGAQKEADKLGYNLVVLDSQNNPAKELANVQDLTVRGTKICLINPTDSDAVGNAVKMANQANIPVITLDRQATKGEVVSHIASDNVLGGKIAGDYIAKKAGEGAKVIELQGIAGTSAARERGEGFQQAVAAHKFNVLASQPADFDRIKGLNVMQNLLTAHPDVQAVFAQNDEMALGALRALQTAGKSDVMVVGFDGTPDGEKAVNDGKLAATIAQLPDQIGAKGVETADKVLKGEKVQAKYPVDLKLVVKQNGGSHHHHHH
[6]; Gibbs-Helmholtz fit of QCR ΔGU(T)
  apparent Tm: 54±1 °C
[6]
  ΔHm: 81 ± 2 kcal/mol
  ΔG°U at 25° C.: 3.2 ± 0.1 kcal/mol
  apparent Tm below wild-type: ~8 °C
[5]; [Ligand] 0 μM
  ΔG: 1.0 kcal/mol
  ΔΔG: 0 kcal/mol
  kex: 0.0099 s⁻¹
[5]; [Ligand] 1.5 μM (ribose)
  ΔG: 1.5 kcal/mol
  ΔΔG: 0.5 kcal/mol
  kex: 0.0051 s⁻¹
[5]; [Ligand] 3 μM (ribose)
  ΔG: 1.8 kcal/mol
  ΔΔG: 0.7 kcal/mol
  kex: 0.0036 s⁻¹
[5]; [Ligand] 6 μM (ribose)
  ΔG: 2.2 kcal/mol
  ΔΔG: 1.2 kcal/mol
  kex: 0.00019 s⁻¹
[5]; [Ligand] 12 μM (ribose)
  ΔG: 2.6 kcal/mol
  ΔΔG: 1.5 kcal/mol
  kex: 0.00011 s⁻¹
[5]; [Ligand] 24 μM (ribose)
  ΔG: 2.7 kcal/mol
  ΔΔG: 1.6 kcal/mol
  kex: 0.00091 s⁻¹

B2: ecRBP.A188C (protein, UniProt P02925 26-296, looked up, variant A188C)
Ribose import binding protein …: KDTIALVVSTLNNPFFVSLKDGAQKEADKLGYNLVVLDSQNNPAKELANVQDLTVRGTKILLINPTDSDAVGNAVKMANQANIPVITLDRQATKGEVVSHIASDNVLGGKIAGDYIAKKAGEGAKVIELQGIAGTSAARERGEGFQQAVAAHKFNVLASQPADFDRIKGLNVMQNLLTAHPDVQAVFCQNDEMALGALRALQTAGKSDVMVVGFDGTPDGEKAVNDGKLAATIAQLPDQIGAKGVETADKVLKGEKVQAKYPVDLKLVVKQ
[6]
  ΔHm: 91 ± 4 kcal/mol
  ΔG°U at 25° C.: 4.1 ± 0.1 kcal/mol
  apparent Tm below wild-type: ~8 °C
[4]; [Ligand] 0 μM
  ΔG: 0.8 kcal/mol
  ΔΔG: 0 kcal/mol
  kex: 0.00217 s⁻¹
[4]; [Ligand] 1.5 μM (ribose)
  ΔG: 1.1 kcal/mol
  ΔΔG: 0.3 kcal/mol
  kex: 0.00141 s⁻¹
[4]; [Ligand] 3 μM (ribose)
  ΔG: 1.4 kcal/mol
  ΔΔG: 0.6 kcal/mol
  kex: 0.00097 s⁻¹
[4]; [Ligand] 6 μM (ribose)
  ΔG: 1.6 kcal/mol
  ΔΔG: 0.8 kcal/mol
  kex: 0.00073 s⁻¹
[4]; [Ligand] 12 μM (ribose)
  ΔG: 2.2 kcal/mol
  ΔΔG: 1.4 kcal/mol
  kex: 0.00032 s⁻¹
[4]; [Ligand] 24 μM (ribose)
  ΔG: 2.5 kcal/mol
  ΔΔG: 1.7 kcal/mol
  kex: 0.00019 s⁻¹
